Measured values taken from US7276481B2, “Method and composition for treatment of skeletal dysplasias” (ProChon Biotech Ltd., priority 2001, dated 2007).

biological target: T1, natriuretic peptide receptor on C3H10T1/2 cells (Mus musculus, UniProt Q6VVW5); experiment: Biotrak enzyme immunoassay of cGMP elicited on C3H10T1/2 cells; type: cell-based; conditions: not given
T1 construct: endogenous in cells; host or cells: C3H10T1/2 cells
T1 sequence (Q6VVW5 23-1047 limits assumed): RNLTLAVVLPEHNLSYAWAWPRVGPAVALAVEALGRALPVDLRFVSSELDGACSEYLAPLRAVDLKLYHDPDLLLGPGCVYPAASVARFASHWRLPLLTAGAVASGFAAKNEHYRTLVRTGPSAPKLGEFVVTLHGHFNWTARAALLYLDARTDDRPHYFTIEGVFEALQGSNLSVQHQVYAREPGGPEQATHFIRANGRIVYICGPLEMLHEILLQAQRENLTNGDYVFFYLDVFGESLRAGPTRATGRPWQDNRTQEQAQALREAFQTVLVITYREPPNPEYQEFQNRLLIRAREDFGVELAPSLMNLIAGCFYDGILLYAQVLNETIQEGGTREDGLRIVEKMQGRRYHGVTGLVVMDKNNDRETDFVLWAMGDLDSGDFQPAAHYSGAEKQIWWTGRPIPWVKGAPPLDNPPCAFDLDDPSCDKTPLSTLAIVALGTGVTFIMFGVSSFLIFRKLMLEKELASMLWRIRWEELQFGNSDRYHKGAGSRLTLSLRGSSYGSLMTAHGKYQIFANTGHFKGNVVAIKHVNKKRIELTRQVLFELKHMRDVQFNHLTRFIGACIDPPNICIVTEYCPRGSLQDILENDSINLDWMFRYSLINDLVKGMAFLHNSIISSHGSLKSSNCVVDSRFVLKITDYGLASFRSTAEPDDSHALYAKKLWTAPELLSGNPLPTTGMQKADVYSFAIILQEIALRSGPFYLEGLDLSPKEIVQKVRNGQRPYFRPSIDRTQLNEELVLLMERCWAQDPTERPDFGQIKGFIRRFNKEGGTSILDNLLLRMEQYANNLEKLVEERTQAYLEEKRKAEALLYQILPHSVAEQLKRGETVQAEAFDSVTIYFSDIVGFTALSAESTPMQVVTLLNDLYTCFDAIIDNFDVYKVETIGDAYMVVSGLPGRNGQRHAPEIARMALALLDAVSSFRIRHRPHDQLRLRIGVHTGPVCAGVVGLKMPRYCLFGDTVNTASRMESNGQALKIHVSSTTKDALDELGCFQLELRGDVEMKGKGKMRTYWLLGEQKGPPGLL
Experimental: All peptide variants were analyzed for activity using the Biotrak enzyme immunoassay (EIA, Amersham) that measures the amount of secondary messenger, cyclic GMP (cGMP), elicited after activation of the natriuretic peptide receptor by the peptide on C3H10T1/2 cells. Amino acid substitutions are marked in bold and underlined. The assay was performed for CNP and variants at a concentration of 10^−6 M. The values are given as the percent of relative binding compared to CNP, where CNP 1-22 and CNP 5-22 yield 100% binding.

Sequence | activity in cGMP assay (in words)
C F G L K L D R I G S M S G L G C (CFGLKLDRIGSMSGLGC) [SEQ ID NO:2] | active

same assay, conditions: Table 2; cGMP assay, compared to CNP

Sequence | cGMP response as percent of CNP
C F G L K L D R A G S M S G L G C (CFGLKLDRAGSMSGLGC; peptide variant) [SEQ ID NO:9] | 11.5%
C H F G L K L D R I G S - - - - C (CHFGLKLDRIGSC; peptide variant) [SEQ ID NO:20] | 11.9%
C H F G L K L D R I G S M A - - C (CHFGLKLDRIGSMAC; peptide variant) [SEQ ID NO:12] | 21.7%
C F G L K L D R I G S M S G L G C (CFGLKLDRIGSMSGLGC) [SEQ ID NO:2] | 127.4%
C F G L K L A R I G S M S G L G C (CFGLKLARIGSMSGLGC; peptide variant) [SEQ ID NO:7] | 49.1%
C H F G L K L D R I - - - - - - C (CHFGLKLDRIC; peptide variant) [SEQ ID NO:23] | 3.8%
C A G L K L D R I G S M S G L G C (CAGLKLDRIGSMSGLGC; peptide variant) [SEQ ID NO:6] | 43.8%
C F G L K L D R I G A Q - - - - C (CFGLKLDRIGAQC; peptide variant) [SEQ ID NO:19] | 3.8%
C F G L K L D R I G S M - - - - C (CFGLKLDRIGSMC; peptide variant) [SEQ ID NO:16] | 17.3%
C F G L K L D R I G S Q - - - - C (CFGLKLDRIGSQC; peptide variant) [SEQ ID NO:18] | 11.8%
C F G L K L D R I G - - - - - - C (CFGLKLDRIGC; peptide variant) [SEQ ID NO:22] | 4.2%
C F G L K L D R I G S M S - - - C (CFGLKLDRIGSMSC; peptide variant) [SEQ ID NO:14] | 29.9%

same assay, conditions: Table 3; cGMP values at 10^-6 M, compared to CNP (CNP 1-22 and CNP 5-22 = 100%)

Sequence | cGMP response as percent of CNP
C A G L K L D R I G S A S G L G C (CAGLKLDRIGSASGLGC; peptide variant) [SEQ ID NO:25] | 3.933%
C W G L K L D R I G S M S G L G C (CWGLKLDRIGSMSGLGC; peptide variant) [SEQ ID NO:31] | −10.834%
C F G L K L E R I G S M S G L G C (CFGLKLERIGSMSGLGC; peptide variant) [SEQ ID NO:35] | 9.450%
C F G L K L D K I G S M S G L G C (CFGLKLDKIGSMSGLGC; peptide variant) [SEQ ID NO:49] | 21.543%
C F G L K L D R T G S M S G L G C (CFGLKLDRTGSMSGLGC; peptide variant) [SEQ ID NO:53] | −1.945%
C F G L K V D R I G S M S G L G C (CFGLKVDRIGSMSGLGC; peptide variant) [SEQ ID NO:47] | 66.714%
C H G L K L D R I G S M S G L G C (CHGLKLDRIGSMSGLGC; peptide variant) [SEQ ID NO:33] | 5.699%
C F G L K I D R I G S M S G L G C (CFGLKIDRIGSMSGLGC; peptide variant) [SEQ ID NO:46] | 88.117%
C F G L K L D R I G S M S K L G C (CFGLKLDRIGSMSKLGC; peptide variant) [SEQ ID NO:60] | 49.202%
C A G L K L A R I G S A S G L G C (CAGLKLARIGSASGLGC; peptide variant) [SEQ ID NO:27] | −10.355%
C L G L K L D R I G S M S G L G C (CLGLKLDRIGSMSGLGC; peptide variant) [SEQ ID NO:29] | 6.255%
C F G L K L D R I G S M S G L G C (CFGLKLDRIGSMSGLGC) [SEQ ID NO:2] | 100.000%
C F G L K L D R L G S M S G L G C (CFGLKLDRLGSMSGLGC; peptide variant) [SEQ ID NO:51] | 14.177%
C V G L K L D R I G S M S G L G C (CVGLKLDRIGSMSGLGC; peptide variant) [SEQ ID NO:32] | 5.740%
C F G L K L D R I G S M S G M G C (CFGLKLDRIGSMSGMGC; peptide variant) [SEQ ID NO:62] | 51.286%
C F G L K L A R I G S A S G L G C (CFGLKLARIGSASGLGC; peptide variant) [SEQ ID NO:26] | 5.755%

Sequence | cGMP response as percent of CNP
C F G L K L D R V G S M S G L G C (CFGLKLDRVGSMSGLGC; peptide variant) [SEQ ID NO:52] | 27.103%
C F G A K L D R I G S M S G L G C (CFGAKLDRIGSMSGLGC; peptide variant) [SEQ ID NO:40] | 20.154%
C F G L M L D R I G S M S G L G C (CFGLMLDRIGSMSGLGC; peptide variant) [SEQ ID NO:44] | 5.421%
C F G L K L D R I G G M S G L G C (CFGLKLDRIGGMSGLGC; peptide variant) [SEQ ID NO:55] | 27.811%
C F G L K L D R I G S M S L L G C (CFGLKLDRIGSMSLLGC; peptide variant) [SEQ ID NO:59] | 15.289%
C F G L K L M R I G S M S G L G C (CFGLKLMRIGSMSGLGC; peptide variant) [SEQ ID NO:39] | 7.784%
C F G L K L D R I G S H S G L G C (CFGLKLDRIGSHSGLGC; peptide variant) [SEQ ID NO:66] | 66.222%
C A G L K L A R I G S M S G L G C (CAGLKLARIGSMSGLGC; peptide variant) [SEQ ID NO:24] | −5.848%
C F G L K L D H I G S M S G L G C (CFGLKLDHIGSMSGLGC; peptide variant) [SEQ ID NO:48] | 13.482%
C I G L K L D R I G S M S G L G C (CIGLKLDRIGSMSGLGC; peptide variant) [SEQ ID NO:28] | 13.899%
C F G L K L N R I G S M S G L G C (CFGLKLNRIGSMSGLGC; peptide variant) [SEQ ID NO:37] | 17.235%
C F G L K L D Q I G S M S G L G C (CFGLKLDQIGSMSGLGC; peptide variant) [SEQ ID NO:50] | 11.953%
C T G L K L D R I G S A S G L G C (CTGLKLDRIGSASGLGC; peptide variant) [SEQ ID NO:71] | −9.108%
C F G L K L D R I G S M S G Q G C (CFGLKLDRIGSMSGQGC; peptide variant) [SEQ ID NO:61] | −3.474%
C F G L K L D R I G A M S G L G C (CFGLKLDRIGAMSGLGC; peptide variant) [SEQ ID NO:54] | 54.469%
C F G L K L D R I G S M S A L G C (CFGLKLDRIGSMSALGC; peptide variant) [SEQ ID NO:58] | 53.649%

same assay, conditions: Table 3; cGMP values at 10^-6 M, compared to CNP (CNP 1-22 and CNP 5-22 = 100%); listed as CNP 5-22

Sequence | cGMP response as percent of CNP
C F G L K L D R I G S M S G L G C (CFGLKLDRIGSMSGLGC) [SEQ ID NO:2] | 100%

same assay, conditions: listed as SEQ ID NO: 2

Sequence | activity in cGMP assay (in words)
C F G L K L D R I G S M S G L G C (CFGLKLDRIGSMSGLGC) [SEQ ID NO:2] | as active as the native CNP1-22
